According to patent US20220242953A1 (JIANGSU HENGRUI MEDICINE, published 2022):
One block for each binder: values may come before it.

Target: T1, Human CD3 antigen for detection (SinoBiological cat #CT038-H2508H); human CD3 epsilon-His and human CD3 … (human, UniProt P07766 23-126; P04234 22-105)
T1 construct: Bought antigen
Assay: Biacore T200 SPR, bispecific antibody captured, CD3 antigen as analyte
Procedure: The detection of antibody affinity to B7H3 and CD3 was performed in the form of capture antibody. BsAb was captured by CM5 biosensor chip (Cat. #BR-1005-30, GE) or Protein A (Cat. #29127556, GE) biosensor chip coupled with Anti-Human IgG Antibody (Cat. #BR-1008-39, Lot. #10260416, GE), and then each antigen flowed through the surface of the chip. The reaction signals were detected in real time with the Biacore T200 instrument to obtain the binding and dissociation curves. After the dissociation of each experimental cycle was completed, the chip was washed and regenerated with regeneration buffer Glycine1.5 (Cat #BR100354, GE) or 3 M MgCl₂ (from Human antibody capture kit, Cat. #BR100839, GE). The data were fitted with the (1:1) Langmuir model using GE Biacore T200 Evaluation version 3.0 software, and the affinity values were obtained.

T1 sequence (P07766 other isoform, or with tags, fused parts or gaps H2508H H2508H, chain 1 of 2): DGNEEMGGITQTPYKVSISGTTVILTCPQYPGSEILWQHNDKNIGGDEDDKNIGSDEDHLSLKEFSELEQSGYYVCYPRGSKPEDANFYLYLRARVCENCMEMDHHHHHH
T1 sequence (P04234 other isoform, or with tags, fused parts or gaps H2508H H2508H, chain 2 of 2): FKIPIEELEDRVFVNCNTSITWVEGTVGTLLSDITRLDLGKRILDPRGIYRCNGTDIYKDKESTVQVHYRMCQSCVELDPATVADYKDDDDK

binding result: no binding
B1: bispecific antibody 155 (AFF3-5) (bispecific antibody)
chain 1: not shown
chain 2: QTVVTQEPSFSVSPGGTVTLTCGLSSGSVSTSHYPSWYQQTPGQAPRMLIYNTNTRSSGVPDRFSGSILGNKAALTITGAQADDESDYYCAIHVDRDIWVFGGGTKLTVLGGGGSGGGGSGGGGSQVQLVQSGGGVVQPGTSLRLSCAASGFIFSSSAMHWVRQAPGKGLEWVAVISYDGSNKYYVDSVKGRFTISRDNSKNTLYLQMNSLRAEDTAVYYCARSARLYASFDYWGQGALVTVSSGGGDKTHTCPPCPAPEAAGGPSVFLFPPKPKDTLMISRTPEVTCVVVDVSHEDPEVKFNWYVDGVEVHNAKTKPREEQYNSTYRVVSVLTVLHQDWLNGKEYKCKVSNKALPAPIEKTISKAKGQPREPQVCTLPPSREEMTKNQVSLSCAVKGFYPSDIAVEWESNGQPENNYKTTPPVLDSDGSFFLVSKLTVDKSRWQQGNVFSCSVMHEALHNHYTQKSLSLSPGK
notes: B7H3 bivalent CD3-B7H3 bispecific antibody, CD3 VH HRH-5

binding result: no binding
B2: bispecific antibody 156 (AFF3-6) (bispecific antibody)
chain 1: not shown
chain 2: B1 chain 2
notes: B7H3 bivalent CD3-B7H3 bispecific antibody, CD3 VH HRH-6
